Results on four molecules are retold here after patent US20190022241A1 (AbbVie / Abbott, published 2019).

The target in assay [1] is T1, hSEZ6-ECD-His (human, UniProt Q53EL9 20-925).
T1 construct: the whole entry is named; also called recombinant SEZ6-His; human recombinant SEZ6-His
Kind of assay: bio-layer interferometry (ForteBio RED) or surface plasmon resonance (Biacore 2000) on human SEZ6-His; the table does not say which; column Hu Affinity (Kd, nM). In general terms: In BLI a coated tip is dipped into the sample, and binding shifts an interference pattern.
Source text: (§1) Various methods were used to analyze the binding and immunochemical characteristics of selected SEZ6 modulators generated as set forth above.

The target of assay [2] is T2, mouse SEZ6 on Neuro2a cells (mouse, UniProt Q7TSK2 20-991).
T2 construct: endogenous on Neuro2a cells; also called murine SEZ6; mSEZ6
Kind of assay: flow cytometry on Neuro2a cells expressing mouse SEZ6. On the technique in general: In flow cytometry, cells or beads pass a laser one at a time.
Procedure: (§2) Briefly 1×10⁵ cells per well of Neuro2a, RIN-5mF, or yeast displaying cynomolgus SEZ6 cells were incubated for 30 minutes with 50 μL PBS (2% FCS) buffer with 5 μg/mL antibody. […] After incubating for 15 minutes cells were washed twice with the PBS buffer and re-suspended in the same with DAPI for flow cytometry analysis of Neuro2a and Rin-m5F or buffer without DAPI for flow cytometric analysis of yeast cells with cSEZ6.

Another assay addresses T3, human SEZ6L ECD-His (human, UniProt Q9BYH1 29-955).
T3 construct: whole entry named
T3 sequence: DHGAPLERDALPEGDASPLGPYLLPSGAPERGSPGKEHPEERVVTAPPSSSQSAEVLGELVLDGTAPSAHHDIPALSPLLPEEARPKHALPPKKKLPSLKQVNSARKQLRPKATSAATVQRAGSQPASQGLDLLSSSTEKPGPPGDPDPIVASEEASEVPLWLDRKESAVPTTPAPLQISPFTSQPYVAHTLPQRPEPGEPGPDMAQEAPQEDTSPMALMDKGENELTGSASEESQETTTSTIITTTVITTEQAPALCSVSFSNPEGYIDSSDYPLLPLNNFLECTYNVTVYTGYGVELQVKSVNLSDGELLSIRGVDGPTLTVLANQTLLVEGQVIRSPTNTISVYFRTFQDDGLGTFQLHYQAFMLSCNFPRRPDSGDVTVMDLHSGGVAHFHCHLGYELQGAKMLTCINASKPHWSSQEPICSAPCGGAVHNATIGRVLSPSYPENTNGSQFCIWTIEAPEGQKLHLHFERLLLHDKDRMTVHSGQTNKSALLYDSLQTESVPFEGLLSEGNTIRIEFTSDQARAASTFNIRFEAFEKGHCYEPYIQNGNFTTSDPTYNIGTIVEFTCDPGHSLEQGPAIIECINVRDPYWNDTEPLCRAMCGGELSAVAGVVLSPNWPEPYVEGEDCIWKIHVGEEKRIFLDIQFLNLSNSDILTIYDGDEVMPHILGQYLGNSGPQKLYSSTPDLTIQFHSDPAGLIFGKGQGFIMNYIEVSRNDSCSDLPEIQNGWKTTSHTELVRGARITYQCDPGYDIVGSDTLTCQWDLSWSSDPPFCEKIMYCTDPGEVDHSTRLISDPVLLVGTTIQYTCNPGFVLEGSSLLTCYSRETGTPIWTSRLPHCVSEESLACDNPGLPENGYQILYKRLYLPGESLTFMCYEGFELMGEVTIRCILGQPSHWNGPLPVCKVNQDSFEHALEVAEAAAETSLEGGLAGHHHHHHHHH
Kind of assay: ELISA on plates coated with SEZ6L protein. On the technique in general: ELISA stands for enzyme-linked immunosorbent assay.

Assay [3] deals with T4, rat SEZ6 on RIN-m5F cells (rat, UniProt Q7TSK2 20-991 (mouse entry)).
T4 construct: endogenous on RIN-m5F cells; also called rSEZ6
T4 chain: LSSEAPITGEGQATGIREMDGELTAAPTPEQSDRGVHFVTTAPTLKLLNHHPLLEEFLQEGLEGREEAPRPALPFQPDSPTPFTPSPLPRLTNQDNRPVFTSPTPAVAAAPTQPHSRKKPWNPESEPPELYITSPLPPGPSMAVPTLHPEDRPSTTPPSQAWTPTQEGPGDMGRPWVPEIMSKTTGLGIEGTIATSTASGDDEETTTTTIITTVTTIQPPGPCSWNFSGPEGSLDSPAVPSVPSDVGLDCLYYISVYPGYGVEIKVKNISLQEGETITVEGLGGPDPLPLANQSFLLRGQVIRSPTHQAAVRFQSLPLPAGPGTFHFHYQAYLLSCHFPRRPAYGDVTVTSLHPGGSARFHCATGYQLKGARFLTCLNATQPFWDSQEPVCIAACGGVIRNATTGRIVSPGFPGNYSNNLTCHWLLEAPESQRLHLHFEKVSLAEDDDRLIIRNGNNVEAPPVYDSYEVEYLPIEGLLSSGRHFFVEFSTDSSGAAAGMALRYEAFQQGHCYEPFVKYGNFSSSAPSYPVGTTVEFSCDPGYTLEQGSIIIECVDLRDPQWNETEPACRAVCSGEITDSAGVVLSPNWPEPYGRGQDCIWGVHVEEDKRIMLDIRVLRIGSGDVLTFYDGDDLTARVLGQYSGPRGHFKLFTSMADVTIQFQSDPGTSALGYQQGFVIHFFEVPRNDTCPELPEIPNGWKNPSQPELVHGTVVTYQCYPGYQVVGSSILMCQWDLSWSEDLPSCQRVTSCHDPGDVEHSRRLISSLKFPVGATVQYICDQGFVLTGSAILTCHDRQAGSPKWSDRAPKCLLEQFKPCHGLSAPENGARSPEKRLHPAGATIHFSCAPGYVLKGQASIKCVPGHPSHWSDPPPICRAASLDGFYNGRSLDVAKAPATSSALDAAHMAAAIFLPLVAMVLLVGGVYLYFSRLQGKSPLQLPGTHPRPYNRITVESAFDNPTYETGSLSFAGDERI
Briefly: flow cytometry on RIN-m5F cells expressing rat SEZ6, verified by BLI or SPR on rat SEZ6-His.
Procedure: as §2
To verify the cross reactivity data above for rat SEZ6 and to determine the affinity and kinetic constants kₒₙ and koff of the selected effectors, either bio-layer interferometry analysis on a ForteBio RED (ForteBio, Inc.) or surface plasmon resonance on a Biacore 2000 (GE Healthcare) were conducted.

Assay [4] addresses T5, extracellular domain of cynomolgus SEZ6 on yeast (cynomolgus, UniProt Q53EL9 23-925 (human entry)).
T5 construct: yeast display; the whole entry is named; also called cSEZ6; cynomolgus SEZ6 ECD
T5 chain: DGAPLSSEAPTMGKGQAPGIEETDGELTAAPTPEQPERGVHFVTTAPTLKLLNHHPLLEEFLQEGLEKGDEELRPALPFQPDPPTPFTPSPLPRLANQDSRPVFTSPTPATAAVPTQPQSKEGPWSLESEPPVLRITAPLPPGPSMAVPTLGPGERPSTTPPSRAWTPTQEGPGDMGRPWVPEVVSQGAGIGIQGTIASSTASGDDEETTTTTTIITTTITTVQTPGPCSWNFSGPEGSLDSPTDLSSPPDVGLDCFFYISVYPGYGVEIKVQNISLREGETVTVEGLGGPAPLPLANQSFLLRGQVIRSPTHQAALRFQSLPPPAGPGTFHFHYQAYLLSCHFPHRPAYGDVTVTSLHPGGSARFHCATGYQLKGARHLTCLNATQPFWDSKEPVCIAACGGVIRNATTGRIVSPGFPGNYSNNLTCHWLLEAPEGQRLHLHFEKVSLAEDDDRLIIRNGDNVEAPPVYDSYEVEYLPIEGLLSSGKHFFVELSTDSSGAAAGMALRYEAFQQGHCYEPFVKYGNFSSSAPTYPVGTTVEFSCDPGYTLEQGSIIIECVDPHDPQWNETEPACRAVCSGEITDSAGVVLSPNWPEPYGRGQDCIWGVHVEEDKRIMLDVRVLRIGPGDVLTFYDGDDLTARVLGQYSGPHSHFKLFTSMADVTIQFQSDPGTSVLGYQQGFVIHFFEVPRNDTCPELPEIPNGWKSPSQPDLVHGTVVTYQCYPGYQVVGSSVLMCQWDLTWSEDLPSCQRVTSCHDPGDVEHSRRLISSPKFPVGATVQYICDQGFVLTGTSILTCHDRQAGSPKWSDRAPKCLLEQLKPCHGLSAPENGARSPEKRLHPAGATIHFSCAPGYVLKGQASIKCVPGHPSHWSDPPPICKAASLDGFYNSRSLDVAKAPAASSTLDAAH
Briefly: flow cytometry, yeast displaying cynomolgus SEZ6 ECD, 5 ug/mL antibody.
Procedure: as §2

For assay [5], the target named is T6, human SEZ6L2 ECD-His (human, UniProt Q6UXD5 28-843).
T6 construct: whole entry named
T6 sequence (Q6UXD5 other isoform, or with tags, fused parts or gaps): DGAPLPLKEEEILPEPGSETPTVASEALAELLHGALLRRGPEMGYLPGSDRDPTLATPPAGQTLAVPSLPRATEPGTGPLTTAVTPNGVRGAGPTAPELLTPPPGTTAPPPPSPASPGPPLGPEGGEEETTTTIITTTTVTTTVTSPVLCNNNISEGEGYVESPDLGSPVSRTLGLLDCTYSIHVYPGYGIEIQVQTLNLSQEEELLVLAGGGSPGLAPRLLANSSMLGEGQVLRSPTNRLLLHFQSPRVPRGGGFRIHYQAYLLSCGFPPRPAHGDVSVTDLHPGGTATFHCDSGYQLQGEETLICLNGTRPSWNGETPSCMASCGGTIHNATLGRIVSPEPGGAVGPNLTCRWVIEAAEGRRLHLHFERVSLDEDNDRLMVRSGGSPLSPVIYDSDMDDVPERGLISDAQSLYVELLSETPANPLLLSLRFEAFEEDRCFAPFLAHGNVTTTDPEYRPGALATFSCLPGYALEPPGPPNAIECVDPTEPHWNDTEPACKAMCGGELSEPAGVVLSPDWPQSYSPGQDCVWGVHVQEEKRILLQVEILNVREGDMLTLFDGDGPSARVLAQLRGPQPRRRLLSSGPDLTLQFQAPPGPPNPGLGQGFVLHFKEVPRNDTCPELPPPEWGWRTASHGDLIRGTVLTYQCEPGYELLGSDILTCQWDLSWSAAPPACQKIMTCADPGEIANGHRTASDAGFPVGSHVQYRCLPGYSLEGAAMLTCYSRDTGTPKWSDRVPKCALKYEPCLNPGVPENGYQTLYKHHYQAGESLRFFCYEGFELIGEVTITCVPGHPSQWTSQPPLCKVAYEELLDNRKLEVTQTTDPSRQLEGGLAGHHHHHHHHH
Briefly: ELISA on plates coated with SEZ6L2 protein.

For assay [6], the target named is T1, hSEZ6-ECD-His. Kind of assay: SPR, Biacore 2000 (data not shown).
The target in assay [7] is T4, rat SEZ6 on RIN-m5F cells. Kind of assay: flow cytometry, RIN-m5F cells, 5 ug/mL antibody.
Procedure: as §2
The target in assay [8] is T6, human SEZ6L2 ECD-His. Briefly: mark of Table 5 for antibodies that bind SEZ6L2.
In a further assay the target is T7, rSEZ6-ECD-His (rat, UniProt Q7TSK2 20-922 (mouse entry)).
T7 construct: the whole entry is named; also called rat recombinant SEZ6-His; rat SEZ6 ECD
T7 chain: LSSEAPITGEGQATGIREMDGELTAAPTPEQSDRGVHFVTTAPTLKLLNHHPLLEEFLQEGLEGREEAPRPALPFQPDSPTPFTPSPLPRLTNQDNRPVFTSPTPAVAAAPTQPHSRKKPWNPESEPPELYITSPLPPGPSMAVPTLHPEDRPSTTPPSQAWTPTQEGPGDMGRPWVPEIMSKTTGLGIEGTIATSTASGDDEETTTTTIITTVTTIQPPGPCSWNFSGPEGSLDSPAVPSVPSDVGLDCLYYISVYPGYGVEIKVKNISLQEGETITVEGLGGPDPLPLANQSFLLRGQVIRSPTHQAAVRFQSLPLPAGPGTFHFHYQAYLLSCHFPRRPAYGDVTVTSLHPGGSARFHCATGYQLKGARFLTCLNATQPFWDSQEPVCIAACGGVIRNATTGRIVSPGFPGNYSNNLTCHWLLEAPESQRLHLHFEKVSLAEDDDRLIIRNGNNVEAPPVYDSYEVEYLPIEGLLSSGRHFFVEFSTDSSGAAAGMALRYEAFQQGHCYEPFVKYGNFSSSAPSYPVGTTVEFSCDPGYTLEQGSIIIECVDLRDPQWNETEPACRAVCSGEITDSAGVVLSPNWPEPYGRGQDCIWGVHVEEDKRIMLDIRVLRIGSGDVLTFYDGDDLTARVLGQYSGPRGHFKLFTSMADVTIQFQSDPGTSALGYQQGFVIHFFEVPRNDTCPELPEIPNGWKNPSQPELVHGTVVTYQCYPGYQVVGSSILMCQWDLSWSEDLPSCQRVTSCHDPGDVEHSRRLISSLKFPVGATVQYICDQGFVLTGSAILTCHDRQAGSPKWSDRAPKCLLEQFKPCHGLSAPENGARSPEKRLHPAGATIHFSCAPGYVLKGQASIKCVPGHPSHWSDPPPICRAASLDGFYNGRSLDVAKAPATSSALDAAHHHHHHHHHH
Briefly: bio-layer interferometry (ForteBio RED) or surface plasmon resonance (Biacore 2000) on rat SEZ6-His; the table does not say which; column Rat XR (Kd, nM).

Source text for rSEZ6-ECD-His: as §1

B1: SC17.36 (antibody, V domains shown)
VH: EVQLQESGPSLVKPSQSQSLTCSVTGDSITSDYWNWIRKFPGKKVEYMGYINYSGSTYYNPSLKSRISITRDTSKNQYYLQLNSVTSEDTATYYCARTSYYNKFLPFAYWGQGTLVTVSA
VL: QIVLTQSPALMSASPGEKVTMTCSASSSVSYMYWYQQKPRSSPKPWIYLTSNLASGVPARFSGSGSGTSYSLTISSMEAEDAATYYCQQWSSNPPTFGGGTKLEIK
notes: murine mAb
As a reminder, the Kd is the equilibrium constant for the complex coming apart. The low end stands for tighter binding, the high end for weaker binding. For the molecule B1, the equilibrium dissociation constant (Kd) in the assay with hSEZ6-ECD-His [1] was found to be 6.3 nM. Moreover, the binding result is reported as “no binding (tested: 5 µg/mL)” in [2]; “no binding (tested: 1 µg/mL)” with human SEZ6L ECD-His; “no binding (tested: 5 µg/mL)” in assay [3]; “binds” in [4]; “no binding (tested: 1 µg/mL)” with human SEZ6L2 ECD-His [5].

B2: hSC17.46 (antibody, human IgG1, V domains shown)
VH: QVQLVQSGAEVKKPGASVKVSCKASGYTFTSYWINWVRQAPGQGLEWIGNIFPDTTTTNYNEKFKGRVTLTRDTSISTAYMELSRLRSDDTAVYYCAREYYDGTYDAMDYWGQGTLVTVSS
VL: AIQMTQSPSSLSASVGDRVTITCKASQSVNNDVAWYQQKPGKAPKLLIYYASNRYTGVPSRFSGSGSGTDFTLTISSLQPEDFATYFCQQDYSSPRTFGQGTKLEIK
notes: humanized, human IgG1/kappa
With B2, in the assay with hSEZ6-ECD-His [6], the binding result was “binds”.

B3: hSC17.34 (antibody, human IgG1, V domains shown)
VH: QVQLVQSGAEVKKPGASVKVSCKASGYTFTDYNMDWVRQAPGQRLEWIGYIYPDNGGAGYNQKFKGRVTITVDTSASTAYMELSSLRSEDTAVYYCSRSITTAWFAYWGQGTLVTVSS
VL: DIQMTQSPSSLSASVGDRVTITCKASQDINSYLSWFQQKPGKAPKSLIYRANRLVDGVPSRFSGSGSGTDYTLTISSLQPEDFATYYCLQYDEFPPTFGQGTKLEIK
notes: humanized, human IgG1/kappa
B3: the binding result with hSEZ6-ECD-His [6] is recorded as “binds”.

B4: SC17.28 (antibody, V domains shown)
VH: QVHLPQSRPELVKPGASVKISCKASGYGFTRSYIHWVKQRPGQGLEWIGYISSGSGGTTYNQKFKGKASLTADNPSSTAYMHLSSLTSEDSAIYFCARGGVRYFDVWGAGTTVTVSS
VL: DILLTQSPAILSVSPGEGVSFSCRASQSIGTSIHWYQQRTNGSPRLLIKYASESISGIPSRFSGSGSGTDFTLRINSLESEDIADYYCQQSNSWPLTFGAGTKLELK
notes: murine mAb
Regarding B4, the binding result in [7] is “binds”; in assay [2], “no binding (tested: 5 µg/mL)”; in the assay with human SEZ6L ECD-His, “no binding (tested: 1 µg/mL)”; with human SEZ6L2 ECD-His [8], “binds”. In addition, the Kd in the assay with hSEZ6-ECD-His [1] was determined as 22.1 nM; with rSEZ6-ECD-His, 31 nM.
